Data: patent publication US20050042607A1, “Parkin protein as ubiquitin ligase” (priority 2000, published 2005)
Entries after “also recorded” stand apart in the source; their conditions may differ.

Key:
UbcH5A-C = experiment: Co-immunoprecipitation of Myc-Parkin with UbcH5A-C expressed in HEK293 cells; format: binding, human; details: IP with antiMyc antibody
Method: (§1) For preparing pcDNA3.1(+)Myc and pcDNA3.1(+)FLAG vectors, oligo DNA encoding N-terminal Myc and FLAG epitopes was ligated at KpnI/BamHI domain of pcDNA3.1(+) (Invitrogen). After the amplification of wild type parkin or N-terminal-deficient variant, Ubc2(HHR6B), UbcH8 and cDNA of ubiquitin with a suitable primer, they were ligated in BamHI domain of the vector. The C-terminal-deficient variant and missense variant of parkin were prepared by introducing a variation into pcDNA3.1(+)Myc-Parkin by using a Quik Change domain specific variation inducing kit (Stratagene) according to a manual. pCAGGS-Ubc3 was already reported [Iwai K. et al., Proc. Natl. Acad. Sci. USA 96, 12436-12441 (1999)].
(§2) pCGN-Ubc4 and other pcDNA3.1(+)FLAG-Ubc were prepared from human liver cDNA library by an ordinary method. Ubc used was obtained from human beings in all the cases. […]
(§3) The following test was conducted to find whether Parkin concerns the ubiquitin pathway or not. To find whether the interaction between Parkin and each of various E2 enzymes occurs or not, Myc-labeled parkin was expressed together with various E2 enzymes labeled with FLAG, HA or His at different domains in HEK293 cells, and the interaction of them was detected by the immunoprecipitation The results are shown in FIG. 1. […]

Ubc2 = target: T1, Ubc2 (Homo sapiens, UniProt P63146); experiment: Co-immunoprecipitation of Myc-Parkin with Ubc2 expressed in HEK293 cells; format: binding; details: IP with antiMyc antibody
T1 construct: expressed in transfected cells; host or cells: HEK293
T1 sequence (P63146 whole entry): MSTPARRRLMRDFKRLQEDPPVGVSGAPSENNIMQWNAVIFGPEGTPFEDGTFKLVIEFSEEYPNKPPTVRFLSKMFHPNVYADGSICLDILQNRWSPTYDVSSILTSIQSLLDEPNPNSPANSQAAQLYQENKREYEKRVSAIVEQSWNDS
Method: as §1, §2, §3

UbcH7 = target: T2, UbcH7 (Homo sapiens, UniProt P68036); experiment: Co-immunoprecipitation of Myc-Parkin with FLAG-UbcH7 expressed in HEK293 cells; format: binding; details: 48 hours after transfection, IP with antiMyc antibody
T2 construct: expressed in transfected cells; host or cells: HEK293
T2 sequence (P68036 whole entry): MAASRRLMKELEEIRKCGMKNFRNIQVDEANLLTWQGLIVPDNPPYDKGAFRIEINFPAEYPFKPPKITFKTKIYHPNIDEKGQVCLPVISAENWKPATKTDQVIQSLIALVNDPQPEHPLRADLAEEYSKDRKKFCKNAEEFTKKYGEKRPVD
Method: as §1
(§4) pCGN-Ubc4 and other pcDNA3.1(+)FLAG-Ubc were prepared from human liver cDNA library by an ordinary method. Ubc used was obtained from human beings in all the cases. Human fetal kidney 293 (HEK293) cells and human dopamigenergic neuroblastoma SH-SY5Y cells were cultured in DMEM containing 10% bovine fetal serum, 10 μg/ml streptomycin and 100 U/ml penicillin.
The transfection was carried out by using FuGENE6 transfection reagent according to the producer (Boehringer-Mannheim)'s manual. […]
The following test was conducted to find whether Parkin concerns the ubiquitin pathway or not. To find whether the interaction between Parkin and each of various E2 enzymes occurs or not, Myc-labeled parkin was expressed together with various E2 enzymes labeled with FLAG, HA or His at different domains in HEK293 cells, and the interaction of them was detected by the immunoprecipitation The results are shown in FIG. 1.
Concretely, pcDNA3.1(+)Myc-Parkin ([…]) was transfected in HEK293 cells simultaneously with various expression vectors encoding FLAG-, His- or HA-Ubc in an amount shown in the parentheses in FIG. 1. […] The cell extracts (upper panel in FIG. 1) and immunoprecipitates (middle and lower panels in FIG. 1) were analyzed by the immunoblotting with various antibodies as shown in FIG. 1. […]

UbcH8 = target: T3, UbcH8 (Homo sapiens, UniProt O14933); experiment: Co-immunoprecipitation of Myc-Parkin with UbcH8 expressed in HEK293 cells; format: binding; details: 48 hours after transfection, IP with antiMyc antibody
T3 construct: expressed in transfected cells; host or cells: HEK293
T3 sequence (O14933 whole entry): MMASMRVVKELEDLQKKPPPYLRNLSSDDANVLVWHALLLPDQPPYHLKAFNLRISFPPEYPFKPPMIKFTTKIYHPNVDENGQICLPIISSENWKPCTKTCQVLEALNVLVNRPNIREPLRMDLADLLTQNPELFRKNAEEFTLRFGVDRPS
Method: as §1, §2, §3

HEK293 fetal kidney cell = experiment: Association of FLAG-ubiquitinated cell protein with Myc-Parkin in HEK293 cells; format: cell-based, human; details: HEK293 fetal kidney cell extract, same analysis as in SH-SY5Y
Method: as §4
(§5) The transfection was carried out by using FuGENE6 transfection reagent according to the producer (Boehringer-Mannheim)'s manual. The cells were treated with MG132 (Cbz-Leu-Leu-Leu-aldehyde) (Peptide Institute, Inc., Osaka, Japan) having a final concentration of 50 μM.
(§6) The immunoprecipitation was conducted with rabbit polyclonal antiMyc antibodies (A-14) (Santa Cruz Biotechnology) as previously reported [Suzuki H. et al., Biochem. Biophys. Res. Commun. 256, 127-132 (1999)]. The immunoblotting was conducted with biotin linked mouse monoclonal antiFLAG(M2) antibody (SIGMA), mouse monoclonal antiMyc antibody (9E10) (Santa Cruz Biotechnology), mouse monoclonal antiHA antibody (HA.11) (Berkeley Antibody Company) or mouse monoclonal antiHis antibody (RGS.His) (QIAGEN). Streptoavidin/horseradish peroxidase complex (Amersham Pharmacia Biotech) was used for detecting biotin-linked antiFLAG(M2) antibody.
(§7) At first, 10 μg of pcDNA3.1(+)Myc-parkin and 10 μg of pcDNA3.1(+)FLAG-ubiquitin vector were simultaneously transfected into SH-SY5Y cells. […]

Ubc3 = target: T4, Ubc3 (Homo sapiens, UniProt P49427); experiment: Co-immunoprecipitation of Myc-Parkin with Ubc3 expressed in HEK293 cells; format: binding; details: IP with antiMyc antibody
T4 construct: expressed in transfected cells; host or cells: HEK293
T4 sequence (P49427 1-236): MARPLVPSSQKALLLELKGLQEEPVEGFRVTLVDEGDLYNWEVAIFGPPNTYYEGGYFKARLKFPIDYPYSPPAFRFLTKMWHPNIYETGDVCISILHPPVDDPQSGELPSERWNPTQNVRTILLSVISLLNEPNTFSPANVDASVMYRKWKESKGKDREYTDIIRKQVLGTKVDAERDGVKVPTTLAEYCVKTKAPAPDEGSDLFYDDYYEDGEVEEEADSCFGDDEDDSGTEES
Method: as §1, §2, §3

Ubc4 = experiment: Co-immunoprecipitation of Myc-Parkin with Ubc4 expressed in HEK293 cells; format: binding, human; details: IP with antiMyc antibody
Method: as §1, §2, §3

[1] = tested on: human dopamigenergic neuroblastoma SH-SY5Y cells; experiment: Association of FLAG-ubiquitinated cell protein with Myc-Parkin in SH-SY5Y cells (antiMyc immunoprecipitation, antiFLAG immunoblotting); format: cell-based
Method: as §1, §4, §5, §6, §7

UbcH6 = target: T5, UbcH6 (Homo sapiens, UniProt P51965); experiment: Co-immunoprecipitation of Myc-Parkin with UbcH6 expressed in HEK293 cells; format: binding; details: IP with antiMyc antibody
T5 construct: expressed in transfected cells; host or cells: HEK293
T5 sequence (P51965 whole entry): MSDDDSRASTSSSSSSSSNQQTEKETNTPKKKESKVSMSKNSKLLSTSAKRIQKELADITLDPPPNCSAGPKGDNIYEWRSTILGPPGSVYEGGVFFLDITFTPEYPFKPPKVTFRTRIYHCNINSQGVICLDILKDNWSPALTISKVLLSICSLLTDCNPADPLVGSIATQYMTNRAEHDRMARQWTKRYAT
Method: as §1, §2, §3

[2] = SH-SY5Y cells treated with proteasome inhibitor MG132 (50 μM)

B1: Parkin: Protein of 465 amino acids encoded by parkin, with N-terminal ubiquitin-like domain and C-terminal RING-box; used Myc-labeled (protein, UniProt O60260 1-465, looked up)
E3 ubiquitin-protein ligase …: MIVFVRFNSSHGFPVEVDSDTSIFQLKEVVAKRQGVPADQLRVIFAGKELRNDWTVQNCDLDQQSIVHIVQRPWRKGQEMNATGGDDPRNAAGGCEREPQSLTRVDLSSSVLPGDSVGLAVILHTDSRKDSPPAGSPAGRSIYNSFYVYCKGPCQRVQPGKLRVQCSTCRQATLTLTQGPSCWDDVLIPNRMSGECQSPHCPGTSAEFFFKCGAHPTSDKETSVALHLIATNSRNITCITCTDVRSPVLVFQCNSRHVICLDCFHLYCVTRLNDRQFVHDPQLGYSLPCVAGCPNSLIKELHHFRILGEEQYNRYQQYGAEECVLQMGGVLCPRPGCGAGLLPEPDQRKVTCEGGNGLGCGFAFCRECKEAYHEGECSAVFEASGTTTQAYRVDERAAEQARWEAASKETIKKTTKPCPRCHVPVEKNGGCMHMKCPQPQCRLEWCWNCGCEWNRVCMGDHWFDV
modifications: Myc tag
notes: Protein of 465 amino acids encoded by parkin, with N-terminal ubiquitin-like domain and C-terminal RING-box; used Myc-labeled
association (co-immunoprecipitation) with UbcH5A-C (UbcH5A-C): no detectable linkage
association (co-immunoprecipitation) with Ubc2 (Ubc2): no detectable linkage
association (co-immunoprecipitation) with UbcH7 (UbcH7): immunoprecipitated together with Parkin
association (co-immunoprecipitation) with UbcH8 (UbcH8): not detected under ordinary conditions; also recorded: UbcH8 immunoprecipitation was weak
ubiquitinated protein bands associated with Parkin (HEK293 fetal kidney cell): no ubiquitinated band linked with Parkin was observed
association (co-immunoprecipitation) with Ubc3 (Ubc3): no detectable linkage
association (co-immunoprecipitation) with Ubc4 (Ubc4): no detectable linkage
ubiquitinated protein bands associated with Parkin [1, 2]: ubiquitinated bands including high-molecular ubiquitinated proteins, were detected
ubiquitinated protein bands associated with Parkin ([1]; SH-SY5Y cells, no treatment with inhibitor): no ubiquitinated band was found
association (co-immunoprecipitation) with UbcH6 (UbcH6): no detectable linkage

B2: Parkin^R42P: Missense Parkin variant from AR-JP patient, No. 42 arginine replaced with proline (ubiquitin-like domain variant) (protein, UniProt O60260 1-465, looked up, variant R42P)
E3 ubiquitin-protein ligase …: MIVFVRFNSSHGFPVEVDSDTSIFQLKEVVAKRQGVPADQLPVIFAGKELRNDWTVQNCDLDQQSIVHIVQRPWRKGQEMNATGGDDPRNAAGGCEREPQSLTRVDLSSSVLPGDSVGLAVILHTDSRKDSPPAGSPAGRSIYNSFYVYCKGPCQRVQPGKLRVQCSTCRQATLTLTQGPSCWDDVLIPNRMSGECQSPHCPGTSAEFFFKCGAHPTSDKETSVALHLIATNSRNITCITCTDVRSPVLVFQCNSRHVICLDCFHLYCVTRLNDRQFVHDPQLGYSLPCVAGCPNSLIKELHHFRILGEEQYNRYQQYGAEECVLQMGGVLCPRPGCGAGLLPEPDQRKVTCEGGNGLGCGFAFCRECKEAYHEGECSAVFEASGTTTQAYRVDERAAEQARWEAASKETIKKTTKPCPRCHVPVEKNGGCMHMKCPQPQCRLEWCWNCGCEWNRVCMGDHWFDV
association (co-immunoprecipitation) with UbcH7 (UbcH7): could be linked with UbcH7
ubiquitinated protein bands associated with Parkin [1, 2]: substantially completely lost the association with the ubiquitinated protein

B3: Parkin^T240R: Missense Parkin variant from AR-JP patient, No. 240 threonine replaced with arginine (RING1 domain) (protein, UniProt O60260 1-465, looked up, variant T240R)
E3 ubiquitin-protein ligase …: MIVFVRFNSSHGFPVEVDSDTSIFQLKEVVAKRQGVPADQLRVIFAGKELRNDWTVQNCDLDQQSIVHIVQRPWRKGQEMNATGGDDPRNAAGGCEREPQSLTRVDLSSSVLPGDSVGLAVILHTDSRKDSPPAGSPAGRSIYNSFYVYCKGPCQRVQPGKLRVQCSTCRQATLTLTQGPSCWDDVLIPNRMSGECQSPHCPGTSAEFFFKCGAHPTSDKETSVALHLIATNSRNITCIRCTDVRSPVLVFQCNSRHVICLDCFHLYCVTRLNDRQFVHDPQLGYSLPCVAGCPNSLIKELHHFRILGEEQYNRYQQYGAEECVLQMGGVLCPRPGCGAGLLPEPDQRKVTCEGGNGLGCGFAFCRECKEAYHEGECSAVFEASGTTTQAYRVDERAAEQARWEAASKETIKKTTKPCPRCHVPVEKNGGCMHMKCPQPQCRLEWCWNCGCEWNRVCMGDHWFDV
association (co-immunoprecipitation) with UbcH7 (UbcH7): did not interact with UbcH7
